According to the domain aggregation screens of Martell et al. (2025):

Test: soluble fraction after stress (log2 fold change); higher = more stays soluble; pooled small domains, quantitative proteomics
Details: stress: pH 4
Outline: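 Aggregation propensity is estimated from the fold change in each domain's soluble amount after acid stress. Pooled small-domain libraries were stressed at pH 4, and higher log2 values mean more stayed soluble.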

| Sequence | soluble fraction (log2) |
| --- | --- |
| HMSEMLPFDEARRQFERDYLVQLLKLTSGNVSQAARLARRNRTDFYALLGRHQLEPASFKPE | -0.641 |
| HMGVSDDMARGVVRARQFLSDFAAVPLDRMTPAEAVARARQLKSELETDAKHSPWLLDVLSNA | -0.37 |
| HMPRSREVHVEPGMVLEDVTTGFVGAVIRTEKSAGIYVIELEDRRGRRRSFPLGGGFWLDGRPIIALPPLP | 0.281 |
| HMAPAYELTEEETKIIEILKANENIDLNELKSQAALSGKKWDKSMKNLAKYNLTKVTVDGDAKTVAYLA | -0.516 |
| HMSAITLDQARAIALDHAGISEGDATFVKEQTGTSSYEIEFYSGSNEYDYEIDKATGAILNVDR | 0.22 |
| HMNKQEFLNTLRIIFKKANVLDVESIIDVYEEHFAVGYEKGLNDEQIIKSLGTPKEIYTSYVEAGI | -1.16 |
| HMNAISIDEAKKIALAKVSGASDQHIRIEADHDDGRLVYEGEIHYGRVEYEFEIDGSTGAIIEWDADRK | -0.0156 |
| HMSDLLYAHPTEKGFQLVNVTQKVVMVILKTAAPNVYTVKGKNAIVFKEGNSWFYSENHNKKLLNIK | -0.1 |
| HMLPDSQLMKEATAWFMRQAADDFSGAERRRLDAWRAQSPAHARAYHQVQALWNAPELQQAAAR | -0.0106 |
| HMRGFGYVRRLPSKRYQASYAGPDLQRHVAPTTFTTKADAESWLGAERKVVESGSWRPPAVREAEARLS | 0.412 |
| HMETYEFNITDKEQTGMRVDKLLPELNSDWSRNQIQDWIKAGLVVANDKVVKSNYKVKLNDHIVVTEKEV | -0.2 |
| HMFTEIMAERNALIQAIQQNLPPQHIQSILSKKNKFRLEDLTNEELRDVWQWILNQRQAQQHQQQ | -0.373 |
| HMAESNQIQLSDVREALNMIGPASWLDLVHYLDTGKGRGGQRLRRMLKSLSRSGEIELVARGTYQITDN | -0.742 |
| HMELTKAELEVMQILWKLKKAFVGDILDRMVEPKPAYNTVSTVVRLLEKKGVVGHESFGKSHRYYPL | -0.0549 |
| HMSGEPVKSTLPGNVFKILVAVGDSVKKGQRMFVLEAMKMEIDVNAPKDGLVTSIEVQQGQTVANGQILAK | 0.181 |
| HMAIMISINAKGEVAWNDQIISLDDLAQRFNAAGQQAQKPTVQLRADKESRYDMVAQVMSRASEAGLSDIA | -0.966 |
| HMGIAKYRQVTEWIQNRIATGELNRGDQIESENDISRTFGISRQTVRHALGLLEQQGILTRIQGRGTFVRD | 0.309 |
| HMTTTFGWENLVGEKGIAATDLHPSGWVTVKDQRVFVVSEGTFIEEGKEVEIMNVDGNRIVVREFKN | -0.46 |
| HMPDYAFEGVVIKLTHRDYDRWKAGFPDVDLPPYLTARDAWLSEQTPADRKNWFVSTATDLRNFQKREAI | -0.362 |
| HMSLNNAHNTIFPRIIELMEMKQLENVLLIGGGIIPRKDIESLESSGVTKLYGPGTPVKETIEFITNWVK | -0.533 |
| HMGSGQVTLPDLEGKSMKEVARILSQLGLHLSPDGHGLAFKQSPAAGTRVPVGSTIKVSFQPL | -0.208 |
| HMDYVKTLGETINVRVAASTDADIYKLLPGGEILNRVGYNEEWTKVMVDGSTFYVYSEYVIQTEPPA | -1.25 |
| HMANSREIPKLAGIEQEEAVKQLLDLDLKPVIEEITDDDTDAGDVVRTDPAAGEHVAVDTEITVFISIG | -0.192 |
| HMLADEPTGALDSKTSVQIMALLTEIAQDRLVIMVTHNPELADEYATRIVNLRDGVISDDSDPFNP | -0.289 |
| HMIVSEYIIIGGDKKEYGPVSMGEVGEWVQGGRANGDSKIKKVGTEEWGRLRDFPEFSAYLS | -0.309 |

| Sequence | soluble fraction (log2) |
| --- | --- |
| HMQADTATITGNGVNMRSGPGTNYQIIDTIPKGTVAEVLSQQDGWVKIYSARISGWVSASYVEIKQT | 0.18 |
| HMDEQKNREIALIENIQREDLNPYEKALGIRNLMDKYGLTQEEVSKRIGKSRSAVSNTVRILNLAPDVL | -0.0309 |
| HMTTARERVYKTLQQWIVNGTLLPEERLNDVELARYFSVSRTPVREALQMLAEQKLVKMVPSSGTFVA | -0.0644 |
| HMWDEMKDQKLVEALLLLREDERKLIYQHVFEERTFDDISRINGLPPYKVKGIYYYAIRKIRKWMG | -0.425 |
| HMPQTNIYPNPAFDKLFVSNLENETNFKIMDLFGRTIINSKTKGEISISELKSGIYIIEINNFRQKFVK | -0.863 |
| HMHTADDFKQLAKQTSNGQLRTRYLALYLFKNGETRTQIATYLGVARGSVNTWVSNYLAHGLEGLQSKP | 0.0388 |
| HMENSMDTDWDVSGVDPSQYRLLFSTLGAIAGVKDVGLNPDGLKIIHTPEALPAIKQAFDANNLKLKMRTN | -0.251 |
| HMIPDAIDPDGRFKWRAGEAVVGFGRHAGEPLKKIAIENPEFLRWILKADFSTDVKKIASDALKGYFPEK | 0.284 |
| HMGMSQQKQSSTVRIIMQDISDANEGLMKMSQIIDAALAEGISETIVRNAISNLHRGGTIYESQTGTYQW | -0.392 |
| HMDDADPYEILGVERDAEDAEIKRAYHDLIRENHPDRLMAEGLPQEMIDVANEKVAFINDAYDRIEKLRGM | -0.89 |
| HMDENILKTRIEDLDLSVRTIKALTGASIRTVSGLARKKESDLLEISGLGDKGIQEIKRALGSLGITL | -0.0429 |
| HMSKININTITESELKELPISTVKQKAIQDYLIDRGFISNIYDLLDIKEITSDDVSLLKKVVNVKLPY | -0.796 |
| HMQPQYSVLFSNIEEKDGGSIITLLQQGNVPYKVENGGTTILVPANRANELRLTLAAQGLPK | 0.223 |
| HMSKQLGFKIKTARRKLNISQGDLSKKLEISPSYLNLIESGKRKVSTDLLMKASEILNLDLKKL | ≥ 0.43 |
| HMVDYIGRRGVMLSTVSEEKMGNAEVVIDGNSYNIYVKSLDGSTIAYHQEILIINKSKDNNYFLVQIY | -0.548 |
| HMGFAEFWLAYPKKVGKGEAERKWKTLKPDAGAVLSAVKRQSASEQWRKDGGRYIPNPATWLHQRRWE | 0.243 |
| HMRNKTVKEVLDYIEKNSEFIFFYYSKAIDTKRIVSLSVKDQPITVILDQLFKNTDVLYEIKDRQISLKRE | -0.508 |
| HMKLEKKWIEAVEKYRRYVLSTGIKHVQKPIEFENFRLGQWYADVRQSYRRGTLSKEKLLEIREINPDFPN | 0.324 |
| HMSEPTVVAINETLTSERLDRYLTTQLPHISRGGIQRLLRKGNILVDGKPAKPTQHPVAGQTVEITWPIPK | -0.02 |
| HMQDYISAEEAKSAALSASQVDSAGAAFSAAELGEKNGIPYYEVAFTADGLEYRYAIDAQTGTVIESSSSG | -0.164 |
| HMTNKQEYAYQWLKSSIIENKIKPSTLLVERHLSEMLHISRTPVRTALMRLADEGFVVISPGRGMVVA | -0.0492 |
| HMHSLGDQVFETIKELIVNNTYQPGELLQIDKLAAEFGVSTTPVREALLRLEGLGLVDIERNKAAVVT | -0.352 |
| HMGHEALSSKLDEIQGVGKEKRSLLLDHFKTFERIKNASMEELEAVPSLGKNTAKAVFRFFHS | 0.236 |
| HMESAQLIINVAGKVSNPGVYQLPQGSRVVDAIEAAGKQLKGVDISDINLARVLVDGEQILVGGV | -1.35 |
| HMKKASLSTVEKKLMKQNYSNDTMENRLARVESYMFGTVFSSDDTQTRIDRISSAYNAQKSS | -0.197 |

| Sequence | soluble fraction (log2) |
| --- | --- |
| HMNDVGKVLNQLGERDRMILLLTYWDELPLKEAARILEVSENNAKIILFRARSRFASLWSAGS | -0.794 |
| HMDRSQRDQEQAQLIRLVQQAFDDSGQRYGAEKIRITLAEGGIRVSTKRIAAIMQELDLRSI | 0.251 |
| HMPIHAGERLTLRLAGEGREAGQAIGYLEDGTLVIVERARHLIGQDVTVEVTRTLQTAGGRLVFAHLVE | -0.896 |
| HMGAGFREAIPPALDGERIDRVVSLLAYVSRNRAAGALAAGSVSVDGEVVFQRSRRVREGEELVVTGFERE | -0.427 |
| HMELSPAELGERLKVARETANVTQDAGAKAAGIARTTLVAIEKGQRSARIDELQTLSRRYGVSVNSLLRR | 0.096 |
| HMEQRREEFILLAKELLEKELRKQNLEVHENLKPDVLNDVAKRLGMVSMDDLLAAVGDGKITPGTVVSKIV | -0.389 |
| HMEVMYFIYQQEEPMRIDKFLVNEMEDFSRNSIQIYIKDNHVLVNDKVVKANYILKKGDAISITIPDPI | -0.768 |
| HMRPLTPLEKLTPDADGKYYHIVQSGETLSWIAKLYETTAEKLQAWNNLFSSDIFPNQKLLLQVTPP | -0.123 |
| HMNTEKRVFAGVENTRLDHFLVEQFPEFSRTFIQQMIKSANVIVNGNIEKASYKLREGDTIMTRPM | -0.0899 |
| HMDISKTLGKNPLLIIDNIEYRGKTLDEITAMTGVKRFENIDIYGSEEAMKTYGEKAKDGVIIAYTT | -0.62 |
| HMTYKHLTIDEMKRFLSTREDSQSALVQFARVENVVGNRKGKYAVIKKWFLKNYKEEYNAFLS | 0.0391 |
| HMRAGALTTLTERERNVFDLVVTGHSNPEIARQLSIADVTVKTHVGHILSKLGVRDRVHLVIWAHRQGLAD | 0.0561 |
| HMPFSLHGVNEGSRNDNAARIAGYLISKNLNLDFVRIFLHNWNRDNKPPLPQQEIDSVVDNVKKTHDRKN | -0.0731 |
| HMKAKTYTVQYIDEGKIIKEEELEEGSIINAPEVTKEGHTFIGWYEGEEKYDVYEPITRNLILESKNEIN | -0.989 |
| HMQSNDAGELEAVVKGIIDANPKVVADYLAGNQKVVSFFVGQAMKATKGKANPKMVSEILGKLL | ≥ 0.43 |
| HMSAEDYMEMIYRLSQENGFTRVNDLASALNVQPPSVTRMIQKLAELNLIKYEKYGVIMLQPYGIEVGRSL | -1.47 |
| HMVGQIISNARKQEKMTQSELAEKVGTNKTYISRIEKGVIEPGVGLFFRIIDALGLKIEIVKP | -0.362 |
| HMANGTVKWFNTTKGFGFIAPETGGKDVFVHISAVERSGLTGLADDQKVTFDVEAGRDGRESAVNLAL | -0.613 |
| HMHPTEKNLTSLLADGSFYMNQNKLETAYDTFTKTIELDPSWAEAWNKRATVLYLMGKYELSQADIDQV | -0.176 |
| HMEPREALDGLISERGETYASISRLLGRNSAYIQQFIKRGSPARLDQSDIALLALHFDVPVEMLGGKE | 0.054 |
| HMGLLEMPSERERQVLVLIAEGLSNKEIAARLYLTEGTVKNHAHSLYAKLNVTTRTLAIARARQLGI | -0.731 |
| HMDSLIEYENERSLRRLINENLSDYERTVWWLYYAGADAAHIAEQTGRSKRSAENAITRVRRKLRALITQS | -0.188 |
| HMNKDEFLNELKSYLSILEDEEQADILEEYTQHIDMKISTGLSEAEAIRDFGNVSELAAQILEAY | -0.343 |
| HMNTDALIGKTGYVTEIVGERHGRIQFSGGEWSARTEGVSIPVGAEVRVDRIDGATAVVSAV | 0.22 |
| HMSMQIILLDKVVNLGGLGDVVKVKDGYARNYLIPQGKAKRANTANLAEFEARRVELERLAAEQLAQAQA | -0.478 |
